Where no end group is shown, it is not given here.
Legend:
[1] = biological target: T1, recombinant human PACAP/VIP R-2 receptor (human); assay: competitive displacement of 125I-VIP on intact CHL cells expressing the receptor
T1 chain: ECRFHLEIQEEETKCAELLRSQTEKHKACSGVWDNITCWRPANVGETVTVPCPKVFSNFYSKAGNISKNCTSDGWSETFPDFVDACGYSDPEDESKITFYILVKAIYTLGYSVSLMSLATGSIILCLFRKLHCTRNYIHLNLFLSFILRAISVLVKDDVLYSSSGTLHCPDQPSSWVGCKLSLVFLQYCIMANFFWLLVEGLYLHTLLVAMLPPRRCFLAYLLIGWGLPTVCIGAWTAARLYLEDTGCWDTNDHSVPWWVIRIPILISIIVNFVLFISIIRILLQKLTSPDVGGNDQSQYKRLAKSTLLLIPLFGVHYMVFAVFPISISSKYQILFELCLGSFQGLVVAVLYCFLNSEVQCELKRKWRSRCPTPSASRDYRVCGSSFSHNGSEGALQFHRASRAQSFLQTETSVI

[2] = biological target: T1, recombinant human PACAP/VIP R-2 receptor; assay: competitive displacement of 125I-PACAP-27 (44 pM) on intact CHL cells expressing the receptor
Method: (§1) Each peptide concentration prepared in Hank's balanced salt solution containing 20 mM HEPES, pH 7.4, 0.5% BSA and 0.1 mM phenylmethylsulfonyl-fluoride (PMSF) was added in triplicates to intact cells. Following the incubation, the cells were washed two times with ice-cold PBS, lysed with 1N NaOH, and radioactivity measured in gamma counter.

[3] = biological target: T1, recombinant human PACAP/VIP R-2 receptor; assay: competitive displacement of 125I-VIP (44 pM) on intact CHL cells expressing the receptor
Method: as §1
(§2) To further confirm the identity of the receptor, the cDNA was expressed in a chinese hamster lung (CHL) cell line.

[4] = biological target: T1, recombinant human PACAP/VIP R-2 receptor; assay: competitive displacement of 125I-VIP (44 pM) on intact CHL cells expressing the receptor; complete displacement not obtainable
Method: as §1, §2

[5] = biological target: T1, recombinant human PACAP/VIP R-2 receptor; assay: competitive displacement of 125I-VIP on intact CHL cells expressing the receptor; complete displacement not obtainable
Method: as §1

For secretin (ligand), which concentration at which 125I-VIP binding was displaced [1] is on record?
Its concentration at which 125I-VIP binding was displaced is 3.8 µM.

Does HAEGTFTSDVSSYLEGQAAKEFIAWLVKGR (ligand) [glucagon-like peptide-I (GLP-1)] bind [1]?
Result: no binding

Does HADGSFSDEMNTILDNLAARDFINWLIQTKITD (ligand) [glucagon-like peptide-II (GLP-II)] bind [1]?
Result: no binding

How did the IC50 [2] turn out when HSDGIFTDSYSRYRKQMAVKKYLAAVLGKRYKQRVKNK (ligand, ends and bridges not checked) [PACAP-38 (pituitary adenylate cyclase activating polypeptide, 38-amino acid peptide)] was run?
Its IC50 is 4.1 nM.

What about the IC50 [3] of the same molecule?
Its IC50 is 1.8 nM.

Which results are given for HSDAVFTDNYTRLRKQMAVKKYLNSILN (ligand) [vasoactive intestinal polypeptide (VIP)]?
IC50 [4]: ~5.8 nM; IC50 [2]: ~9 nM

Which IC50 [5] does the source give for HSDGIFTDSYSRYRKQMAVKKYLAAVL (ligand, ends and bridges not checked) [PACAP-27 (pituitary adenylate cyclase activating polypeptide, 27-amino acid peptide)] here?
Its IC50 is roughly 37 nM.

— US5831051, “Receptor for peptide hormones involved in energy homeostasis, and method and compositions for use thereof” (The Rockefeller University, dated 1998)
